Experimental data as given in US20250332297A1, “DLL3-SPECIFIC BINDING CONSTRUCTS AND THEIR USE IN RADIOTHERAPY” (MOLECULAR PARTNERS AG, priority 2024, published 2025).
Like-named read-outs stand apart in the source and are kept apart here.

Columns and labels:
mouse serum albumin = biological target: T1, mouse serum albumin (Mus musculus, UniProt P07724); assay: SPR binding to mouse serum albumin (Example 1); details: immobilized MSA, 1:1 Langmuir, Table 2
T1 construct: purchased Sigma-Aldrich
Description: Similarly, a SPR assay was used to determine the binding kinetics to human or mouse serum albumin. […] All analytes (3-fold dilution ranging from 1000-12.35 nM) were injected in succession for 240 s (25 μl/min) and dissociation was recorded for 600 s (25 μl/min). […] The obtained SPR traces were used to determine the ankyrin repeat protein-serum albumin interaction parameters, summarized in Table 2.

hDLL3-MC38 tumor model = assay: Biodistribution of radio-labelled DARPin conjugates in hDLL3-MC38 tumor model; format: in vivo, mouse; details: Pb-212 DOTAM conjugate 0.01 mg/kg (10 μCi) i.v., athymic nude mice, s.c. hDLL3-MC38, Example 8
Description: hDLL3-MC38 tumor model. ATH mice were purchased from Envigo. General handling and maintenance of mice was done as described above for the NCI-H82 tumor model. hDLL3-MC38 cells were purchased from Biocytogen (Catalog No. 311448). […] Cells were quantified using Countess cell counter.
Biodistribution study. […] Based on immunohistochemistry analyses, the hDLL3-MC38 tumors have a higher level of human DLL3 expression than the NCI-H82 tumors described in Example 3 (data not shown). Biodistribution was monitored at 1 h, 4 h and 24h post-injection. Mice were euthanized by CO2 inhalation and cervical dislocation.
Mice were euthanized by CO2 inhalation and cervical dislocation.

[1] = Thermal stability by Circular Dichroism (CD) spectroscopy; format: physicochemical; details: CD at 222 nm, 20° C. to 90° C., 2 μM in PBS pH7.4; DARPins with C-terminal Cysteine-containing tag (SEQ ID NOs: 15, 16, 18)
Description: Labelling of proteins conjugated to a chelator with a radionuclide may require harsh conditions, including high temperatures. The thermal stability and the propensity to unfold/refold of 2D DARPins MAM279, MAM283 and MAM282 were assessed using Circular Dichroism (CD) spectroscopy.
Samples of the DARPins were diluted to 2 μM in PBS, pH7.4. The assessment was done using a Jasco J-815 spectrophotometer. The Tm (melting temperature) of the selected proteins was determined by CD as a parameter for thermal stability. In brief, the ellipticity was recorded at […] and a temperature range from 20° C. to 90° C. was applied followed by reverse scan to record the refolding behavior. The Tm of the selected ankyrin repeat protein constructs is the midpoint of the protein unfolding. Spectra from 190-250 nm were recorded before and after the temperature scan.

[2] = biological target: T2, NCI-H82 cells expressing human DLL3 (Homo sapiens, UniProt Q9NYJ7); assay: Cell binding titration on NCI-H82 cells; format: cell-based
T2 construct: a human lung carcinoma cell line which endogenously expresses DLL3 on the surface; host or cells: NCI-H82
T2 sequence (Q9NYJ7 27-618): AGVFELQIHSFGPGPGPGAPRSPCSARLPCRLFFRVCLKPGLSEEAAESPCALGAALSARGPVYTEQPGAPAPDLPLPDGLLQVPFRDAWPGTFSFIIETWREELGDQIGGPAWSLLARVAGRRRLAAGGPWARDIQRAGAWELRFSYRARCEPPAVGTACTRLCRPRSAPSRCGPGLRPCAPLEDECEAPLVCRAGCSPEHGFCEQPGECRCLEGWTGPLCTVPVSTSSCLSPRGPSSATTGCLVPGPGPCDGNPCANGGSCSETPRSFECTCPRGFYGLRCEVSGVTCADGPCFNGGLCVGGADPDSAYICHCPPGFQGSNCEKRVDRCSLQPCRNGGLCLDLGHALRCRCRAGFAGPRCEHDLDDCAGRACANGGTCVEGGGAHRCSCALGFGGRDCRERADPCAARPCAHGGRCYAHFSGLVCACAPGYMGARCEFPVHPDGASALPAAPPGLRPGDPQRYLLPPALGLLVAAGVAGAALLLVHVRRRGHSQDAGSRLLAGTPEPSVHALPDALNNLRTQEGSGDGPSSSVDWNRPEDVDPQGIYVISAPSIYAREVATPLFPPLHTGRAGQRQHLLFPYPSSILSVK
Description: Furthermore, cell binding titration assays were also performed with selected two domain (2D) designed ankyrin repeat proteins to determine binding to human cells expressing DLL3 endogenously, in absence and presence of human serum albumin. For this purpose, NCI-H82 cells were used, a human lung carcinoma cell line which endogenously expresses DLL3 on the surface. […] A non-binding DARPin comprising SEQ ID NO: 22 was used as a negative control.
In brief, 1×10^5 cells/well were resuspended in 100 μl DARPin dilution (500 nM, 1:5 serial diluted in PBS, 2% FBS) and incubated for 1 h at 4° C. This step was performed in absence and presence of 10 μM Human Serum Albumine (CSL Behring #150570). Cells were washed twice with PBS, 2% FBS and resuspended in 100 μl anti-DARPin antibody (rabbit anti-DARPin 1.4.8) and LIVE/DEAD cell stain (1:1000, Biolegend #423106). After incubation and washing, cells were incubated with detection antibody for 30 minutes (Goat […] IgG (H+L), AF647, Thermo Fisher #21445). Cells were fixed (Paraformaldehyde Solution, TCL119, LucernaChem) and acquired at Attune N×T (Thermo Life Technologies). Raw fcs files were exported and analyzed using FlowJo software. MFI values of live AF647-positive cells were exported from FlowJo and plotted using GraphPad Prism software.

T1 sequence (P07724 25-608): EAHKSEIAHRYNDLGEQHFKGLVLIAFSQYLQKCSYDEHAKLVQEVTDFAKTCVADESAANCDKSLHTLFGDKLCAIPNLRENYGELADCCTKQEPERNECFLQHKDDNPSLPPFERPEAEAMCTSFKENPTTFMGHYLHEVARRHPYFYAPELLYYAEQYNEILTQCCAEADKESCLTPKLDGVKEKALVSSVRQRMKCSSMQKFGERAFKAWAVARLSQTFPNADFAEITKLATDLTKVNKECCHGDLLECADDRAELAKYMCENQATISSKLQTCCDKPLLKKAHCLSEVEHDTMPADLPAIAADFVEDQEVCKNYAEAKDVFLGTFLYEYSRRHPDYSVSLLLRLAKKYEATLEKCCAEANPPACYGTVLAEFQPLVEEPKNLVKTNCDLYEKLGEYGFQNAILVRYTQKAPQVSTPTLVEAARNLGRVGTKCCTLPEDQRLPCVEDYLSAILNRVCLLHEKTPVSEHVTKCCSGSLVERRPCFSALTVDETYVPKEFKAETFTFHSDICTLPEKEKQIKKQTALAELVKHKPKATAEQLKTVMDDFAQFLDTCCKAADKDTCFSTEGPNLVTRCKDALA

B1: MAM282: Two domain (2D) ankyrin repeat protein: serum albumin-specific domain (SEQ ID NO: 7), PT linker, DLL3-specific domain (SEQ ID NO: 2) (protein)
chain: DLGKKLLEAARAGQDDEVRELLKAGADVNAKDYFSHTPLHLAARNGHLKIVEVLLKAGADVNAKDFAGKTPLHLAADAGHLEIVEVLLKAGADVNAQDIFGKTPADIAADAGHEDIAEVLQKAAGSPTPTPTTPTPTPTTPTPTPTGSDLGKKLLAAAREGQDDEVRELLKAGADVNAKDIWGQTPLHIAAWFGHLEIVEVLLKAGADVNAKDQTGHTPLHLAAKFGHLEIVEVLLKAGADVNAQDLLGRTPADLAAEEGHEDIAEVLQKAA
modifications: Ankyrin repeat protein (MAM282)
Mouse serum albumin
  Kd: 335 nM
  Koff MSA: 0.0354 s⁻¹
  Kon MSA: 105900 M⁻¹ s⁻¹
hDLL3-MC38 tumor model; 4 h
  Blood % ID/g: 28.6 % ID/g
  Kidneys % ID/g: 19.4 % ID/g
  Tumors % ID/g: 21.4 % ID/g
hDLL3-MC38 tumor model; 24 h
  Blood % ID/g: 9.9 % ID/g
  Kidneys % ID/g: 27.9 % ID/g
  Tumors % ID/g: 51.9 % ID/g
[1]
  melting temperature (Tm): above 90 °C
[2]; absence of human serum albumin, read-out: Cell binding EC50, w/o HSA
  EC50: 2.6 nM
[2]; presence of 10 μM human serum albumin, read-out: Cell binding EC50, with HSA
  EC50: 2.6 nM
